Results published in patent US20200055959A1 (UCB, published 2020).

Columns and labels:
human serum albumin [1] = target: T1, human serum albumin (human, UniProt P02768 25-609); experiment: SPR, BIAcore T100; construct captured; HSA 50-6.25 nM as analyte; 1:1 model
T1 construct: Analyte in SPR, titrated 50-6.25 nM; also called HSA
Description: (§1) Single linker Fab-dsFv samples were captured to the sensor chip surface using either a human F(ab′)₂-specific goat Fab (Jackson ImmunoResearch, 109-006-097) or an in-house generated anti human CH1 monoclonal antibody. Covalent immobilisation of the capture antibody was achieved by standard amine coupling chemistry.
(§2) For kinetic assays, either a titration of human serum albumin 50-6.25 nM, or a single concentration of OX40 of 25 nM was performed. A blank flow-cell was used for reference subtraction and buffer-blank injections were included to subtract instrument noise and drift.
(§3) Kinetic parameters were determined by simultaneous global-fitting of the resulting sensorgrams to a standard 1:1 binding model using BIAcore T100 Evaluation software.

human serum albumin [2] = target: T1, human serum albumin; experiment: SPR, BIAcore T100; construct captured; HSA 50-6.25 nM as analyte; 1:1 model; repeat at end of run
Description: as §1, §2, §3

human serum albumin [3] = target: T1, human serum albumin; experiment: SPR, BIAcore T100; construct captured by anti-human F(ab')2 Fab or anti-CH1 mAb; HSA 50-6.25 nM as analyte; 1:1 model
Description: as §1, §2, §3

human serum albumin [4] = target: T1, human serum albumin; experiment: SPR, BIAcore T100; construct captured; HSA 50-6.25 nM as analyte; 1:1 model; plasmid ratio 2:1:2
Description: as §1, §2, §3

human serum albumin [5] = target: T1, human serum albumin; experiment: SPR, BIAcore T100; construct captured; HSA 50-6.25 nM as analyte; 1:1 model; plasmid ratio 1:1:2
Description: as §1, §2, §3

human serum albumin [6] = target: T1, human serum albumin; experiment: SPR, BIAcore T100; construct captured; HSA 50-6.25 nM as analyte; 1:1 model; plasmid ratio 1:1:1
Description: as §1, §2, §3

human serum albumin [7] = target: T1, human serum albumin; experiment: SPR, BIAcore T100; construct captured; HSA 50-6.25 nM as analyte; 1:1 model; plasmid ratio printed 1:1:1 (second such row)
Description: as §1, §2, §3

Binder | Kd (human serum albumin [1]) | koff (human serum albumin [1]) | kon (human serum albumin [1]) | Kd (human serum albumin [4]) | koff (human serum albumin [4]) | kon (human serum albumin [4]) | Kd (human serum albumin [5]) | koff (human serum albumin [5]) | kon (human serum albumin [5]) | Kd (human serum albumin [6]) | koff (human serum albumin [6]) | kon (human serum albumin [6]) | further results
A26Fab-645dsscFv (HC-scFv) (bispecific antibody, To be checked by chain lengths; also called Fab-dsscFv (HC-scFv)) heavy: EVQLVESGGGLVQPGGSLRLSCAASGFTFTNYGIHWIRQAPGKGLEWVASISPSGGLTYYRDSVKGRFTISRDDAKNSPYLQMNSLRAEDTAVYYCATGGEGIFDYWGQGTLVTVSSASTKGPSVFPLAPSSKSTSGGTAALGCLVKDYFPEPVTVSWNSGALTSGVHTFPAVLQSSGLYSLSSVVTVPSSSLGTQTYICNVNHKPSNTKVDKKVEPKSCSGGGGTGGGGSEVQLLESGGGLVQPGGSLRLSCAVSGIDLSNYAINWVRQAPGKCLEWIGIIWASGTTFYATWAKGRFTISRDNSKNTVYLQMNSLRAEDTAVYYCARTVPGYSTAPYFDLWGQGTLVTVSSGGGGSGGGGSGGGGSGGGGSDIQMTQSPSSVSASVGDRVTITCQSSPSVWSNFLSWYQQKPGKAPKLLIYEASKLTSGVPSRFSGSGSGTDFTLTISSLQPEDFATYYCGGGYSSISDTTFGCGTKVEIKRT light: DIQMTQSPSSLSASVGDRVTITCRATQSIYNALAWYQQKPGKAPKLLIYNANTLHTGVPSRFSASGSGTDSTLTISSLQPEDFATYYCQQYYDYPLTFGGGTKVEIKRTVAAPSVFIFPPSDEQLKSGTASVVCLLNNFYPREAKVQWKVDNALQSGNSQESVTEQDSKDSTYSLSSTLTLSKADYEKHKVYACEVTHQGLSSPVTKSFNRGEC | 1.31 nM | 0.00024 s⁻¹ | 183000 M⁻¹ s⁻¹ | – | – | – | – | – | – | – | – | – | –
A26Fab-645dsFv (bispecific antibody, Expressed in HEK293; tested as supernatant; also called Fab-dsFv; A26Fab-645dsFv (start)) heavy: EVQLVESGGGLVQPGGSLRLSCAASGFTFTNYGIHWIRQAPGKGLEWVASISPSGGLTYYRDSVKGRFTISRDDAKNSPYLQMNSLRAEDTAVYYCATGGEGIFDYWGQGTLVTVSSASTKGPSVFPLAPSSKSTSGGTAALGCLVKDYFPEPVTVSWNSGALTSGVHTFPAVLQSSGLYSLSSVVTVPSSSLGTQTYICNVNHKPSNTKVDKKVEPKSCSGGGGSGGGGTGGGGSEVQLLESGGGLVQPGGSLRLSCAVSGIDLSNYAINWVRQAPGKCLEWIGIIWASGTTFYATWAKGRFTISRDNSKNTVYLQMNSLRAEDTAVYYCARTVPGYSTAPYFDLWGQGTLVTVSS light: DIQMTQSPSSLSASVGDRVTITCRATQSIYNALAWYQQKPGKAPKLLIYNANTLHTGVPSRFSASGSGTDSTLTISSLQPEDFATYYCQQYYDYPLTFGGGTKVEIKRTVAAPSVFIFPPSDEQLKSGTASVVCLLNNFYPREAKVQWKVDNALQSGNSQESVTEQDSKDSTYSLSSTLTLSKADYEKHKVYACEVTHQGLSSPVTKSFNRGECSGGGGSGGGGSGGGGSDIQMTQSPSSVSASVGDRVTITCQSSPSVWSNFLSWYQQKPGKAPKLLIYEASKLTSGVPSRFSGSGSGTDFTLTISSLQPEDFATYYCGGGYSSISDTTFGCGTKVEIKRT | – | – | – | – | – | – | – | – | – | – | – | – | Kd (human serum albumin [2]): 3.11 nM; koff (human serum albumin [2]): 0.000212 s⁻¹; kon (human serum albumin [2]): 68200 M⁻¹ s⁻¹; Kd (human serum albumin [3]): 2.01 nM; koff (human serum albumin [3]): 0.000151 s⁻¹; kon (human serum albumin [3]): 75100 M⁻¹ s⁻¹

More lines, main results first:

Kd (human serum albumin [1]) | koff (human serum albumin [1]) | kon (human serum albumin [1]) | Kd (human serum albumin [4]) | koff (human serum albumin [4]) | kon (human serum albumin [4]) | Kd (human serum albumin [5]) | koff (human serum albumin [5]) | kon (human serum albumin [5]) | Kd (human serum albumin [6]) | koff (human serum albumin [6]) | kon (human serum albumin [6]) | Binder | further results
– | – | – | 1.05 nM | 0.000207 s⁻¹ | 197000 M⁻¹ s⁻¹ | 1.11 nM | 0.000234 s⁻¹ | 211000 M⁻¹ s⁻¹ | 1 nM | 0.000209 s⁻¹ | 209000 M⁻¹ s⁻¹ | Single linker A26Fab-645dsFv (HC-vH linked) (bispecific antibody, Three polypeptides; the free 645dsvL is held to the linked 645dsvH by the disulphide G44C (vH) / G100C (vL); all are the same molecule; also called single linker Fab-dsFv (HC-vH)) heavy: EVQLVESGGGLVQPGGSLRLSCAASGFTFTNYGIHWIRQAPGKGLEWVASISPSGGLTYYRDSVKGRFTISRDDAKNSPYLQMNSLRAEDTAVYYCATGGEGIFDYWGQGTLVTVSSASTKGPSVFPLAPSSKSTSGGTAALGCLVKDYFPEPVTVSWNSGALTSGVHTFPAVLQSSGLYSLSSVVTVPSSSLGTQTYICNVNHKPSNTKVDKKVEPKSCSGGGGSGGGGTGGGGSEVQLLESGGGLVQPGGSLRLSCAVSGIDLSNYAINWVRQAPGKCLEWIGIIWASGTTFYATWAKGRFTISRDNSKNTVYLQMNSLRAEDTAVYYCARTVPGYSTAPYFDLWGQGTLVTVSS light: DIQMTQSPSSLSASVGDRVTITCRATQSIYNALAWYQQKPGKAPKLLIYNANTLHTGVPSRFSASGSGTDSTLTISSLQPEDFATYYCQQYYDYPLTFGGGTKVEIKRTVAAPSVFIFPPSDEQLKSGTASVVCLLNNFYPREAKVQWKVDNALQSGNSQESVTEQDSKDSTYSLSSTLTLSKADYEKHKVYACEVTHQGLSSPVTKSFNRGEC VL: DIQMTQSPSSVSASVGDRVTITCQSSPSVWSNFLSWYQQKPGKAPKLLIYEASKLTSGVPSRFSGSGSGTDFTLTISSLQPEDFATYYCGGGYSSISDTTFGCGTKVEIKRT | –
– | – | – | 1.49 nM | 0.000188 s⁻¹ | 126000 M⁻¹ s⁻¹ | 2.31 nM | 0.000262 s⁻¹ | 113000 M⁻¹ s⁻¹ | 3.17 nM | 0.000235 s⁻¹ | 74000 M⁻¹ s⁻¹ | Single linker A26Fab-645dsFv (LC-vL linked) (bispecific antibody, Three polypeptides; the free 645dsvH is held to the linked 645dsvL by the disulphide G44C (vH) / G100C (vL); all are the same molecule; also called single linker Fab-dsFv (LC-vL)) heavy: EVQLVESGGGLVQPGGSLRLSCAASGFTFTNYGIHWIRQAPGKGLEWVASISPSGGLTYYRDSVKGRFTISRDDAKNSPYLQMNSLRAEDTAVYYCATGGEGIFDYWGQGTLVTVSSASTKGPSVFPLAPSSKSTSGGTAALGCLVKDYFPEPVTVSWNSGALTSGVHTFPAVLQSSGLYSLSSVVTVPSSSLGTQTYICNVNHKPSNTKVDKKVEPKSC light: DIQMTQSPSSLSASVGDRVTITCRATQSIYNALAWYQQKPGKAPKLLIYNANTLHTGVPSRFSASGSGTDSTLTISSLQPEDFATYYCQQYYDYPLTFGGGTKVEIKRTVAAPSVFIFPPSDEQLKSGTASVVCLLNNFYPREAKVQWKVDNALQSGNSQESVTEQDSKDSTYSLSSTLTLSKADYEKHKVYACEVTHQGLSSPVTKSFNRGECSGGGGSGGGGSGGGGSDIQMTQSPSSVSASVGDRVTITCQSSPSVWSNFLSWYQQKPGKAPKLLIYEASKLTSGVPSRFSGSGSGTDFTLTISSLQPEDFATYYCGGGYSSISDTTFGCGTKVEIKRT VH: EVQLLESGGGLVQPGGSLRLSCAVSGIDLSNYAINWVRQAPGKCLEWIGIIWASGTTFYATWAKGRFTISRDNSKNTVYLQMNSLRAEDTAVYYCARTVPGYSTAPYFDLWGQGTLVTVSS | Kd (human serum albumin [7]): 2.46 nM; koff (human serum albumin [7]): 0.000223 s⁻¹; kon (human serum albumin [7]): 91000 M⁻¹ s⁻¹
1.29 nM | 0.000222 s⁻¹ | 172000 M⁻¹ s⁻¹ | – | – | – | – | – | – | – | – | – | A26Fab-645dsscFv (LC-scFv) (bispecific antibody, To be checked by chain lengths; also called Fab-dsscFv (LC-scFv)) heavy: EVQLVESGGGLVQPGGSLRLSCAASGFTFTNYGIHWIRQAPGKGLEWVASISPSGGLTYYRDSVKGRFTISRDDAKNSPYLQMNSLRAEDTAVYYCATGGEGIFDYWGQGTLVTVSSASTKGPSVFPLAPSSKSTSGGTAALGCLVKDYFPEPVTVSWNSGALTSGVHTFPAVLQSSGLYSLSSVVTVPSSSLGTQTYICNVNHKPSNTKVDKKVEPKSC light: DIQMTQSPSSLSASVGDRVTITCRATQSIYNALAWYQQKPGKAPKLLIYNANTLHTGVPSRFSASGSGTDSTLTISSLQPEDFATYYCQQYYDYPLTFGGGTKVEIKRTVAAPSVFIFPPSDEQLKSGTASVVCLLNNFYPREAKVQWKVDNALQSGNSQESVTEQDSKDSTYSLSSTLTLSKADYEKHKVYACEVTHQGLSSPVTKSFNRGECSGGGGSGGGGSEVQLLESGGGLVQPGGSLRLSCAVSGIDLSNYAINWVRQAPGKCLEWIGIIWASGTTFYATWAKGRFTISRDNSKNTVYLQMNSLRAEDTAVYYCARTVPGYSTAPYFDLWGQGTLVTVSSGGGGSGGGGSGGGGSGGGGSDIQMTQSPSSVSASVGDRVTITCQSSPSVWSNFLSWYQQKPGKAPKLLIYEASKLTSGVPSRFSGSGSGTDFTLTISSLQPEDFATYYCGGGYSSISDTTFGCGTKVEIKRT | –
